30 sequences from the nanobody polyreactivity screen of Harvey et al. (2022) can be followed below.

A short description of the data set: yeast display, Sf9 membrane polyspecificity reagent, FACS + sequencing; frameworks hold sequencing errors. An outline of the steps:
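Nanobodies came from a synthetic yeast display library in Saccharomyces cerevisiae BJ5465, induced with galactose for 36–48 hours and stained for 1 hour at 4 °C with 10% biotinylated, detergent-solubilized Sf9 membrane reagent. Cells were enriched on streptavidin microbeads and then FACS-sorted, with low and high (top ~1%) gates set on anti-HA fluorescence for expression and streptavidin fluorescence for reagent binding. Each polyreactivity label reflects the gate a clone came from. Genes were amplified by colony PCR, sequenced by MiSeq 2 × 250 and filtered by CDR length.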
As to “QVQLVESGGGLVQAGGSLRLSCAASGSIFHVNAMGWYRQAPGKERELVAGISDGGSTYYADSVKGRFTISRDNAKNTVYLQMNSLKPEDTAVYYCAAESEQWYSYVLSYDWEYDYWGQGTQVTVSS”, the “polyreactivity (PSR sort gate)” value is “low polyreactivity”.

For “QVQLVESGGGLVQAGGSLRLSCAASGSIFHVNARGRYRQAPGKERELVAGISDGGSTYYADSVKGRFTISRDNAKNTVYLQMNSLKPEDTGVYYCAAESEQWYSYVLSYDWEYDYWGQGTQVTVSS”, the “polyreactivity (PSR sort gate)” value is given as “low polyreactivity”. For the sequence “QVQLVESGGGLVQAGGSLRLSCAASGSIFHYNAMGWYRQAPGKEREFVAVISKSSGSTFYADSVKGRLTISRDNAKNTVYLQMNSLKPEDTAVYYCNRVTKRYRKIGNYWGQGTQVTVSS”, the “polyreactivity (PSR sort gate)” value is “high polyreactivity”. The same measure for “QVQLVESGGGLVQAGGSLRLSCAASGSIFHYNAMGWYRQAPGKERELVARISVNGGRTYYADSVKGRFTISRDNAKNTVYLQMNSLKPEDTAVYYCAVEGVWRSFFYGYDSWGQGTQVTVSS”: “low polyreactivity”; for “QVQLVESGGGLVQAGGSLRLSCAASGSIFHYYGMGWYRQAPGKERELVAAISRGGSTNYADSVKGRFTISRDNAKNTVYLQMNSLKPEDTAVYYCNARTYRKAYSGYNYWGQGTQVTVSS”: “high polyreactivity”. The same measure for “QVQLVESGGGLVQAGGSLRLSCAASGSIFIAYGMGWYRQEPGKERELVAAITVSGGNTYYADSVKGRFTISRDNAKNTVYLQMKSLKPEDTAVYYCAADYWYYYGKGLYDYWGQGTQVTVSS”: “low polyreactivity”; for “QVQLVESGGGLVQAGGSLRLSCAASGSIFIAYGMGWYRQEPGKERELVAAITVSGGNTYYADSVKGRFTISRDNAKNTVYLQMNSLKPEDNAVYYCADVTYWQDGHRGNYWGQGTQVTVSS”: “low polyreactivity”.

Take “QVQLVESGGGLVQAGGSLRLSCAASGSIFIFNAMGWYRQAPGKEREFVARIRRDSSTYYADSVKGRFTISRDNAKNTVYLLMNSLKPEDTAVYYCAAKRVYRRVELNSWGQGTQVTVSS”: the “polyreactivity (PSR sort gate)” value was “low polyreactivity”.

For “QVQLVESGGGLVQAGGSLRLSCAASGSIFIGYAMGWYRQAPGKERELVAAIDSNGDTTYYADSVKGRFTISRDNAKNTVYLQMNSLKPEDTAVYYCAVDPYHDQLVSDHYYWGQGTQVTVSS”, the “polyreactivity (PSR sort gate)” value is “low polyreactivity”. On to “QVQLVESGGGLVQAGGSLRLSCAASGSIFIGYAMGWYRQAPGKERELVAAISNSGGRTYYADSVKGRFTISRDNAKNTVYLQMNSLKPEDTAVYYCAAEERYAYRYDYSGQGTQVTVSS”, for which the “polyreactivity (PSR sort gate)” value is recorded as “high polyreactivity”. Regarding “QVQLVESGGGLVQAGGSLRLSCAASGSIFIINAMGWYRQAPGKERELVAAINNGVNTYYADSVKGRFTISRDNAKNTVYLQMNSLKPEDTAVYYCAADPYFYYYGYDYWGQGTQVTVSS”, the “polyreactivity (PSR sort gate)” value is given as “low polyreactivity”. The same measure for “QVQLVESGGGLVQAGGSLRLSCAASGSIFIIYAMGWYRQAPGKERELVAAINTSGTSTYYADSVKGRFTISRDNAKNTVYLQMNSLKPEDTAVYYCAAAGRRSYKYYFWGQGTQVTVSS”: “high polyreactivity”. The entry for “QVQLVESGGGLVQAGGSLRLSCAASGSIFIIYAMGWYRQAPGKERELVASITGRGDSTYYADSVKGRFTISRDNAKNTVYLQMNSLKPEDTAVYYCNAGVYVYRVPGKGYYWGQGTQVTVSS” is “low polyreactivity”; for “QVQLVESGGGLVQAGGSLRLSCAASGSIFIQYAMGWYRQAPGKERELVAAINTSGGRTYYADSVKGRFTISRDNAKNTVYLLMNSLKPEDTAVYYCNADHFGWPWRVRILEDDYWGQGTQVTVSS” it is “low polyreactivity”.

Turning to “QVQLVESGGGLVQAGGSLRLSCAASGSIFIRYTLGWYRQAPGKERELVAVISRRGGSTYYADSVKGRFTISRDNAKNTVYLQMNSLNPEDTAVYYCNTTSSVRAPGSGVYYVPGFDYWGQGTQVTVSS”, the “polyreactivity (PSR sort gate)” value was “high polyreactivity”. Take “QVQLVESGGGLVQAGGSLRLSCAASGSIFISYAMGWYRQAPGTERELVAAITWSGDSTYYADSVKGRFTISRDNAKNTVYLQMNSLKPEDTAVYYCAADWYFRNQRGYYWGQGTQVTVSS”: the “polyreactivity (PSR sort gate)” value was “low polyreactivity”. On to “QVQLVESGGGLVQAGGSLRLSCAASGSIFITYAMGWYRQAPGKEMELVAAIRDSGDRTYYADSVKGRFTISRDNAKNTVYLQMNSLKPVDTAVYYCNARWEEPLKYDYWGQGTQVTVSS”, for which the “polyreactivity (PSR sort gate)” value was “low polyreactivity”. Regarding “QVQLVESGGGLVQAGGSLRLSCAASGSIFITYAMGWYRQAPGKERELVAAIRDSGDRTYYADSVKGRFTISRDNAQNTVYLQMNSLKPEDTAVYHCNARWQEPLKYDYWGQGTQVTVSS”, the “polyreactivity (PSR sort gate)” value was “low polyreactivity”.

With “QVQLVESGGGLVQAGGSLRLSCAASGSIFIVYARGWYRPAPGRERELVATITSGGSTNYADSVKGRFTISRDNAKKTVYLQMNSLKPEDTAVYYCAKDLYYGDYYYWGLGTQVTVSS”, the “polyreactivity (PSR sort gate)” value is listed as “low polyreactivity”. Turning to “QVQLVESGGGLVQAGGSLRLSCAASGSIFIWYAMAWYRQAPWKERELVAAIRSGGSTYYADSVKGRFTISRDNAKNTVYLQMNSLKPEDTAVYYCAKVLTWRGYRYNYWGQGTQVTVSS”, the “polyreactivity (PSR sort gate)” value is recorded as “low polyreactivity”. The entry for “QVQLVESGGGLVQAGGSLRLSCAASGSIFIYAMGWYRQAPGKERELVATISWSGTSTYSDSVKGRFTISRDNAKNTVYLQMNSLKPEDTAVYYCNKLKRTYYSSGYPHDYWGQGTQVTVSS” is “low polyreactivity”. In the case of “QVQLVESGGGLVQAGGSLRLSCAASGSIFIYNAMGWYRQAPGKERELVAAINWTGGSTYYADSVKGRFTISRDNAKNTVYLQMNSLKPEDTAVYYCNALRYGSTRGYDYWGQGTQVTVSS”, the “polyreactivity (PSR sort gate)” value is given as “high polyreactivity”. The same measure for “QVQLVESGGGLVQAGGSLRLSCAASGSIFIYNAMGWYRQAPGKERELVAAITWSGGRTYYADSVKGRFTISRDNAKNSVYLQMNSLKPEDTAVYYCNAVWTDAYYSYGYDYWGQGTQVTVSS”: “low polyreactivity”. Consider “QVQLVESGGGLVQAGGSLRLSCAASGSIFIYYAMGGYRQEPGKERELVAAINTGGTTYYADSVKGRFTISRYNAKNTVYLQMNSLNPEDTAVYYCAKYIAYYGYVPSPWDHPGDDYWGQGTQVTVSS”, for which the “polyreactivity (PSR sort gate)” value is “low polyreactivity”. The same measure for “QVQLVESGGGLVQAGGSLRLSCAASGSIFIYYAMGWYRQAPGKEREFVAAISTSTADTYYADSVKGRFTISRDNAKNTVYLQMNSLKPEDTAVYYCAAECRPKWYYWAEGYYWGQGTQVTVSS”: “high polyreactivity”; for “QVQLVESGGGLVQAGGSLRLSCAASGSIFIYYAMGWYRQAPGKERELVADITFSAGSNTYYADSVKGRFTISRDNAKNTVYLQMNSLKPEDTAVYYCNADRGFIGSITEYDYWGQGTQVTVSS”: “low polyreactivity”; for “QVQLVESGGGLVQAGGSLRLSCAASGSIFKAHTMGWYRQAPGKERELVAAISGSGGRTRYADSVKGRFTISRDNAKITVYLQMNSLKPDVTAVYYCAASDRGGYYYWGQGTQVTVSS”: “high polyreactivity”. For the sequence “QVQLVESGGGLVQAGGSLRLSCAASGSIFKFNAMGWYRQAPGKERELDASITWTGTSTHYADSVKGRFTISRDNAKNTVFLQMNSLKPEDTAVYYCATYLYLWYEKGYTYDYWGQGTQVTVSS”, the “polyreactivity (PSR sort gate)” value is listed as “high polyreactivity”.

On to “QVQLVESGGGLVQAGGSLRLSCAASGSIFKFNTMGWYRQAPGNERELVAAITRVGSTYYADSVKGRFTISRDNAKNTVYLQMNSLKPEDTAVYYCAVRQRDKFAGGRNDYWGQGTQVTVSS”, for which the “polyreactivity (PSR sort gate)” value was “high polyreactivity”. In the case of “QVQLVESGGGLVQAGGSLRLSCAASGSIFKFYAMGWYRQAPGKERELVAAINYNDINTYYADSVKGRFTISRDNAKNTVYLQMNRLKPEDTAVYYCNAELNVQYLYGYTGEYDYWGQGTQVTVSS”, the “polyreactivity (PSR sort gate)” value is recorded as “low polyreactivity”.
